Test results: patent publication US20180265864, “Genome Engineering Methods Using a Cytosine-Specific CAS9” (Florida State University Research Foundation, Inc., published 2018)

Tests used:
[1] = target: T1, AceCas9 (in E. coli) (Acidothermus cellulolyticus 11B) (UniProt A0LWB3); experiment: cell_activity
T1 sequence: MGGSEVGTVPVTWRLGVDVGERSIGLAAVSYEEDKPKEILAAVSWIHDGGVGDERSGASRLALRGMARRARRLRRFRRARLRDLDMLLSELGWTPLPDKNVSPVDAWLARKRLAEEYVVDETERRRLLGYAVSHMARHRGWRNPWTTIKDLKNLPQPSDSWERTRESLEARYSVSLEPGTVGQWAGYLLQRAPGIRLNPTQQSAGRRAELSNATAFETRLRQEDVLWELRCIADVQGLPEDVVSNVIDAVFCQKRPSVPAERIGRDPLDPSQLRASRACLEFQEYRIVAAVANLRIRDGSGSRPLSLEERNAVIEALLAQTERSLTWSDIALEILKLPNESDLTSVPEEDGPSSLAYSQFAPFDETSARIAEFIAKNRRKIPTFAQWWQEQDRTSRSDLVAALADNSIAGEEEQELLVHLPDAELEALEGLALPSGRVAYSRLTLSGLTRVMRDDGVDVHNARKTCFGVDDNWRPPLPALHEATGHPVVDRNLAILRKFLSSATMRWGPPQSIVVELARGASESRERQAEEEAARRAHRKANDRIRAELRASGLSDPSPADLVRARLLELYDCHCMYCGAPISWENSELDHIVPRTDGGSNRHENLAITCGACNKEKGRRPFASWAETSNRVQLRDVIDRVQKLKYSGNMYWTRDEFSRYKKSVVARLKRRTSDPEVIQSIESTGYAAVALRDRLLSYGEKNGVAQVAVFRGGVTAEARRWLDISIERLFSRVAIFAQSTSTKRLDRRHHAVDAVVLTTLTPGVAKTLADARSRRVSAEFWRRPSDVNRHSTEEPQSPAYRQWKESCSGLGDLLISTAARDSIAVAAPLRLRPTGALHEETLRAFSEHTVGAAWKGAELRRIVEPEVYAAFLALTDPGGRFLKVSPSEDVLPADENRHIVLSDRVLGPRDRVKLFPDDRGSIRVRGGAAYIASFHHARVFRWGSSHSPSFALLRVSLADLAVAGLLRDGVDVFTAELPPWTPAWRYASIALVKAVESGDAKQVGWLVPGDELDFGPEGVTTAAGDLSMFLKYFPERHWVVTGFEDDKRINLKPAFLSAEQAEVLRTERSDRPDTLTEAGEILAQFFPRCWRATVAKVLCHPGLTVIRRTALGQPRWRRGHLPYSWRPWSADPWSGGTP

AceCas9 (Type II-C Cas9) = target: T2, AceCas9 (Type II-C Cas9) (Acidothermus cellulolyticus 11B, UniProt A0LWB3 A0LWB3:1-1138); experiment: cleavage_in_vitro; 50 C; conditions: tags: C-terminal His6 (pET28b, E. coli Rosetta DE3); linear plasmid
T2 sequence: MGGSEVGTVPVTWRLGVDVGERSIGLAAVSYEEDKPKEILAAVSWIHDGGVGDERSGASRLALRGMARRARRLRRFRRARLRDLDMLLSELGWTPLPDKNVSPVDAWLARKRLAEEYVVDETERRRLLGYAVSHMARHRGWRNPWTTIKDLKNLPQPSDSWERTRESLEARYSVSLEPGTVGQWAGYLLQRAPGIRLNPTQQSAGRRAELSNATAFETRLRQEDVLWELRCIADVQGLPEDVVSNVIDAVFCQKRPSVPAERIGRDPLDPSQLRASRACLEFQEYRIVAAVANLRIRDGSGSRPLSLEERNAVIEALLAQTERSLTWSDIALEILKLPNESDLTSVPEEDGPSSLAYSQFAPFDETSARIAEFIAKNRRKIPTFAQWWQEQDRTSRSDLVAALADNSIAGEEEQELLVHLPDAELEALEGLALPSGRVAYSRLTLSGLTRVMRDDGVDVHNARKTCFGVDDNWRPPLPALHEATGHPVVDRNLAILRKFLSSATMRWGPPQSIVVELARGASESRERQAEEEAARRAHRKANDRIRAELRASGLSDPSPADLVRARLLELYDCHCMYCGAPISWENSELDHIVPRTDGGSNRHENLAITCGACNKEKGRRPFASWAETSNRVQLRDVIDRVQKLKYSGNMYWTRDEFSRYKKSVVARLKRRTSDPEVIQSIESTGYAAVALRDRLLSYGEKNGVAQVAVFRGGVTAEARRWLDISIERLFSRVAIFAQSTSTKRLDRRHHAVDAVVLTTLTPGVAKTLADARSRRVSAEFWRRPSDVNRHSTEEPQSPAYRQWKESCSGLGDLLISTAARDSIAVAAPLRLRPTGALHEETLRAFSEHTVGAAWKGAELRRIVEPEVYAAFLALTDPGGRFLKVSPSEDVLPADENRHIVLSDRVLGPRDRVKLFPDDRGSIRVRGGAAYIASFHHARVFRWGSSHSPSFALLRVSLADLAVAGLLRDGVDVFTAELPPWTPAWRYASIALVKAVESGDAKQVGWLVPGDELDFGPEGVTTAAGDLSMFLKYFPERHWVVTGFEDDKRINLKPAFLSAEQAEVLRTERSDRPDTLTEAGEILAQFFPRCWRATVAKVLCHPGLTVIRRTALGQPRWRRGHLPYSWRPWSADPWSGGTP

## sgRNA 22-nt spacer ; ccdB plasmid PAMWT
[1]; E. coli ccdB selection
  activity: < 0.01 % survival

## sgRNA 26-nt spacer ; ccdB plasmid PAMC(4,5)T
[1]; [28,29], NNNTT PAM
  activity: < 0.001 % survival

## sgRNA 26-nt spacer ; ccdB plasmid PAMWT
[1]; E. coli ccdB selection
  activity: 13.6 % survival

B1: sgRNA 24-nt spacer (template bottom strand; RNA is reverse complement without promoter) ; pUC19 WT target, BamHI-linearized (ssRNA ; dsDNA)
RNA: GGUAGGAUGGCAAGAUCCUGGUAUGCUGGGGAGCCUGAAAAGGCUACCUAGCAAGACCCCUUCGUGGGGUCGCAUUCUUCACCCCCUCGCAGCAGCGAGGGGGUUC
DNA 1: GGTAGGATGGCAAGATCCTGGTATACACC
DNA 2: GGTGTATACCAGGATCTTGCCATCCTACC
AceCas9 (Type II-C Cas9)
  activity: 0.53 min⁻¹
